Changes are numbered by the printed parent chain.
B1: NRC3_random_hg19_418_o1 (dsDNA)
DNA 1: GCTGTGAGCATCACTTCTTGTTGGTCAGAGTAAGAGGCGATTGACAGCGTAGAATGAAGG
DNA 2: CCTTCATTCTACGCTGTCAATCGCCTCTTACTCTGACCAACAAGAAGTGATGCTCACAGC
B2: NRC3_random_hg19_190_o1 (dsDNA)
DNA 1: GCGCCTCAATTCTAACTTGATTGCTTCCCTAGAGGCGCGATTGACAGCGTAGAATGAAGG
DNA 2: CCTTCATTCTACGCTGTCAATCGCGCCTCTAGGGAAGCAATCAAGTTAGAATTGAGGCGC
B3: NRC3_wobSeed124_DR5_o1 (dsDNA)
DNA 1: GCCCTACTGGGCCATTCAGAGGTCATTGATCATATGGCGATTGACAGCGTAGAATGAAGG
DNA 2: CCTTCATTCTACGCTGTCAATCGCCATATGATCAATGACCTCTGAATGGCCCAGTAGGGC
B4: NRC3_random_hg19_27_o1 (dsDNA)
DNA 1: GCTCCCTGCCCAGTTCTGTGCAGGGTGTGCGTGTCTGCGATTGACAGCGTAGAATGAAGG
DNA 2: CCTTCATTCTACGCTGTCAATCGCAGACACGCACACCCTGCACAGAACTGGGCAGGGAGC
B5: NRC3_random_hg19_209_o1 (dsDNA)
DNA 1: GCGAGTTTCCAGCAGATGGCCATCACAACAATACTGGCGATTGACAGCGTAGAATGAAGG
DNA 2: CCTTCATTCTACGCTGTCAATCGCCAGTATTGTTGTGATGGCCATCTGCTGGAAACTCGC
B6: NRC3_random_hg19_55_o1 (dsDNA)
DNA 1: GCTTGAACGCCTGCTTTGTGCTGATGCAGATCCAGAGCGATTGACAGCGTAGAATGAAGG
DNA 2: CCTTCATTCTACGCTGTCAATCGCTCTGGATCTGCATCAGCACAAAGCAGGCGTTCAAGC
B7: NRC3_random_hg19_54_o1 (dsDNA)
DNA 1: GCAGGTAATGTATTCACAGGTTCTGGGACGTCATTGGCGATTGACAGCGTAGAATGAAGG
DNA 2: CCTTCATTCTACGCTGTCAATCGCCAATGACGTCCCAGAACCTGTGAATACATTACCTGC
B8: NRC3_random_hg19_130_o1 (dsDNA)
DNA 1: GCGAGATCAAGACCATCCTGGCTAACATGGTGAAACGCGATTGACAGCGTAGAATGAAGG
DNA 2: CCTTCATTCTACGCTGTCAATCGCGTTTCACCATGTTAGCCAGGATGGTCTTGATCTCGC
B9: NRC3_random_hg19_171_o1 (dsDNA)
DNA 1: GCGGGCTACTGCCTAGGGTGCCTTGGCACAGCCAGCGCGATTGACAGCGTAGAATGAAGG
DNA 2: CCTTCATTCTACGCTGTCAATCGCGCTGGCTGTGCCAAGGCACCCTAGGCAGTAGCCCGC
B10: NRC3_wobSeed50_DR2_T20C_o1 (dsDNA)
DNA 1: GCCCTAGTTGGTCAGGAGGCCACACACCGGATATGAGCGATTGACAGCGTAGAATGAAGG
DNA 2: CCTTCATTCTACGCTGTCAATCGCTCATATCCGGTGTGTGGCCTCCTGACCAACTAGGGC
B11: NRC3_random_hg19_381_o1 (dsDNA)
DNA 1: GCCATGAGCGTGGAATGTTCTTCCATTTGTTCATATGCGATTGACAGCGTAGAATGAAGG
DNA 2: CCTTCATTCTACGCTGTCAATCGCATATGAACAAATGGAAGAACATTCCACGCTCATGGC
B12: NRC3_random_hg19_309_o1 (dsDNA)
DNA 1: GCCTTAGCTGGGATCTTATCTGTACAGTATCTGGGAGCGATTGACAGCGTAGAATGAAGG
DNA 2: CCTTCATTCTACGCTGTCAATCGCTCCCAGATACTGTACAGATAAGATCCCAGCTAAGGC
B13: NRC3_wobSeed77_DR3_C8A_o1 (dsDNA)
DNA 1: GCACTTAAGGGTCAACGAGGTTATAGCACGCGTATAGCGATTGACAGCGTAGAATGAAGG
DNA 2: CCTTCATTCTACGCTGTCAATCGCTATACGCGTGCTATAACCTCGTTGACCCTTAAGTGC
B14: NRC3_wobSeed113_DR4_T17G_o1 (dsDNA)
DNA 1: GCATATGTAGGTTAGCGGGGGTCATTCAGACTAGGCGCGATTGACAGCGTAGAATGAAGG
DNA 2: CCTTCATTCTACGCTGTCAATCGCGCCTAGTCTGAATGACCCCCGCTAACCTACATATGC
B15: NRC3_wobSeed27_DR1_A9G_o1 (dsDNA)
DNA 1: GCACTCGGGGGACAAAGGTCAGAGCTACGCCAGTGAGCGATTGACAGCGTAGAATGAAGG
DNA 2: CCTTCATTCTACGCTGTCAATCGCTCACTGGCGTAGCTCTGACCTTTGTCCCCCGAGTGC
B16: NRC3_wobSeed49_DR2_C7A_o1 (dsDNA)
DNA 1: GCCAAAATAGGTCAAGAGGTCAAAGTCCGCTTCCCGGCGATTGACAGCGTAGAATGAAGG
DNA 2: CCTTCATTCTACGCTGTCAATCGCCGGGAAGCGGACTTTGACCTCTTGACCTATTTTGGC
B17: NRC3_wobSeed72_DR2_T13C_o1 (dsDNA)
DNA 1: GCTCGAGTAGGTCACGGGGGCATTCAGGGATGAAGAGCGATTGACAGCGTAGAATGAAGG
DNA 2: CCTTCATTCTACGCTGTCAATCGCTCTTCATCCCTGAATGCCCCCGTGACCTACTCGAGC
B18: NRC3_wobSeed72_DR2_A6T_o1 (dsDNA)
DNA 1: B17 DNA 1 with A6T, C13T
DNA 2: B17 DNA 2 with G48A, T55A
B19: NRC3_wobSeed26_DR1_C22A_o1 (dsDNA)
DNA 1: GCTCTAGTTGGTCAAAGGTCAAACACTCGAAATGCGGCGATTGACAGCGTAGAATGAAGG
DNA 2: CCTTCATTCTACGCTGTCAATCGCCGCATTTCGAGTGTTTGACCTTTGACCAACTAGAGC
B20: NRC3_wobSeed74_DR3_A18G_o1 (dsDNA)
DNA 1: GCTCTAGTTGGTCACGGGGGTCACACACGACGGGTAGCGATTGACAGCGTAGAATGAAGG
DNA 2: CCTTCATTCTACGCTGTCAATCGCTACCCGTCGTGTGTGACCCCCGTGACCAACTAGAGC
B21: NRC3_wobSeed17_DR0_A14G_o1 (dsDNA)
DNA 1: GCATATGTAGGTTGGGGTCATTCAGAAAGTAGGGAAGCGATTGACAGCGTAGAATGAAGG
DNA 2: CCTTCATTCTACGCTGTCAATCGCTTCCCTACTTTCTGAATGACCCCAACCTACATATGC
B22: NRC3_wobSeed25_DR1_A5C_o1 (dsDNA)
DNA 1: GCCACACTAGGTCAAAGGTCAAAGTCGAGCCAACCAGCGATTGACAGCGTAGAATGAAGG
DNA 2: CCTTCATTCTACGCTGTCAATCGCTGGTTGGCTCGACTTTGACCTTTGACCTAGTGTGGC
B23: NRC3_wobSeed120_DR4_G7A_o1 (dsDNA)
DNA 1: GCCCGAATAGGTTACGAGGGGGCATTCAGTGCGAATGCGATTGACAGCGTAGAATGAAGG
DNA 2: CCTTCATTCTACGCTGTCAATCGCATTCGCACTGAATGCCCCCTCGTAACCTATTCGGGC
B24: NRC3_wobSeed50_DR2_A17G_o1 (dsDNA)
DNA 1: B10 DNA 1 with A17G, C20T
DNA 2: B10 DNA 2 with G41A, T44C
B25: NRC3_wobSeed89_DR3_A15G_o1 (dsDNA)
DNA 1: GCCTATGTAGGTTAGGGGGGTCATTCAGTTTGAAAGGCGATTGACAGCGTAGAATGAAGG
DNA 2: CCTTCATTCTACGCTGTCAATCGCCTTTCAAACTGAATGACCCCCCTAACCTACATAGGC
B26: NRC3_wobSeed89_DR3_A15C_o1 (dsDNA)
DNA 1: B25 DNA 1 with G15C
DNA 2: B25 DNA 2 with C46G
B27: NRC3_wobSeed89_DR3_A9G_o1 (dsDNA)
DNA 1: B25 DNA 1 with A9G, G15A
DNA 2: B25 DNA 2 with C46T, T52C

target: VDR:RXRa (Homo sapiens, UniProt P11473;P19793 full;full); experiment: no ligand; PBM; 270 nM : 90 nM RXRa; PBS pH 7.4, 2% milk, 0.02% Triton X-100, 1 mM DTT, BSA, 0.4 mg/ml salmon testes DNA; conditions: tags: His kept;His cleaved; copies: 1;1; label: surface-attached array probe
Sequence (P11473 whole entry, chain 1 of 2): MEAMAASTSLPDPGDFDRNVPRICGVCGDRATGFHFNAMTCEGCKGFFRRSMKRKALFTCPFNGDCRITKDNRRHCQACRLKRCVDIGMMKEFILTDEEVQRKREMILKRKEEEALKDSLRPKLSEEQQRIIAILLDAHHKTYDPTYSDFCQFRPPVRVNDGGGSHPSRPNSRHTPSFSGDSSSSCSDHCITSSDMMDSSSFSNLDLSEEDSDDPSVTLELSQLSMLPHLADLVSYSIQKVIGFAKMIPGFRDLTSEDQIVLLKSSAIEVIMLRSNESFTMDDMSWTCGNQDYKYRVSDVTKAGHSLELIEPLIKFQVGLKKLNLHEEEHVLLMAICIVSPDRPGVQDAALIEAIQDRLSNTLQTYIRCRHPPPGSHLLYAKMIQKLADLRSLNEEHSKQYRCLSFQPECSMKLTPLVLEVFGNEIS
Sequence (P19793 whole entry, chain 2 of 2): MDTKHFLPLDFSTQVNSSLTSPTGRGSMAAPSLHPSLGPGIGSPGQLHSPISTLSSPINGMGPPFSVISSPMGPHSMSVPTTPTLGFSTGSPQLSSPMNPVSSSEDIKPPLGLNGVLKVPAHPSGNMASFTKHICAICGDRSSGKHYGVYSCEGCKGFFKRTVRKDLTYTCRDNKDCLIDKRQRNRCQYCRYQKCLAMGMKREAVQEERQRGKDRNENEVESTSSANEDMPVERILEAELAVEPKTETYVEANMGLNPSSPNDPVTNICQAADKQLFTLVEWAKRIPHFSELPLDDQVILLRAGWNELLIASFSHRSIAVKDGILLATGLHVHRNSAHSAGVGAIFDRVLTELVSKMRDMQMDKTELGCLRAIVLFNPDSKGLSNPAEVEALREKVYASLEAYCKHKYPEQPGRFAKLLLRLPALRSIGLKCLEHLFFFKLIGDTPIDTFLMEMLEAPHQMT
How it was run: (§1)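 Random background probes are the reference for binding z-scores. These scores derive from regression-normalized fluorescence on custom Agilent 4×180K protein-binding microarrays incubated 1 h with ligand-free nuclear receptor dimers. Binding was detected with antibodies against each partner (one per run).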

Binder	binding signal
B1	-0.69 PBM z-score against 500 random probes
B2	0.11 PBM z-score against 500 random probes
B3	3.94 PBM z-score against 500 random probes
B4	-0.37 PBM z-score against 500 random probes
B5	-0.22 PBM z-score against 500 random probes
B6	-0.59 PBM z-score against 500 random probes
B7	-0.18 PBM z-score against 500 random probes
B8	-0.35 PBM z-score against 500 random probes
B9	-0.96 PBM z-score against 500 random probes
B10	0.33 PBM z-score against 500 random probes
B11	-0.43 PBM z-score against 500 random probes
B12	-0.57 PBM z-score against 500 random probes
B13	8.17 PBM z-score against 500 random probes

target: RARg:RXRa (Homo sapiens, UniProt P13631;P19793 full;full); experiment: as above; conditions: tags: His kept;His cleaved; copies: 1;1; label: surface-attached array probe
Sequence (P13631 whole entry, chain 1 of 2): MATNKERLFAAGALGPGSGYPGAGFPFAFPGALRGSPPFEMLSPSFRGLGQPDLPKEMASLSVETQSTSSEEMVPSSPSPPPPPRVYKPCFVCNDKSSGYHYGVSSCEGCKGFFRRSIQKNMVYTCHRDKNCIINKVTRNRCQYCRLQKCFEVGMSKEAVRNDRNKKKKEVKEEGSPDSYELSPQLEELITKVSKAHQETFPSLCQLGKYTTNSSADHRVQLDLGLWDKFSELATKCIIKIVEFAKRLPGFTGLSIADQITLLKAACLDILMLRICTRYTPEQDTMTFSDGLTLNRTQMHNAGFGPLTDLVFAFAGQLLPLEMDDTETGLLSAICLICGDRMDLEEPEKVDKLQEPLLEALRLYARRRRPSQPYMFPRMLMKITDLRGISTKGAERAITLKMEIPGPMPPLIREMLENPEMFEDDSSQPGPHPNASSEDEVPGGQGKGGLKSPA
Sequence (P19793 whole entry, chain 2 of 2): as the sequence (P19793 whole entry, chain 2 of 2) above
How it was run: as §1

Binder	binding signal
B7	-0.18 PBM z-score against 500 random probes
B11	-0.62 PBM z-score against 500 random probes
B12	-0.47 PBM z-score against 500 random probes

target: RARb:RXRa (Homo sapiens, UniProt P10826;P19793 full;full); experiment: as above; conditions: tags: His kept;His cleaved; copies: 1;1; label: surface-attached array probe
Sequence (P10826 whole entry, chain 1 of 2): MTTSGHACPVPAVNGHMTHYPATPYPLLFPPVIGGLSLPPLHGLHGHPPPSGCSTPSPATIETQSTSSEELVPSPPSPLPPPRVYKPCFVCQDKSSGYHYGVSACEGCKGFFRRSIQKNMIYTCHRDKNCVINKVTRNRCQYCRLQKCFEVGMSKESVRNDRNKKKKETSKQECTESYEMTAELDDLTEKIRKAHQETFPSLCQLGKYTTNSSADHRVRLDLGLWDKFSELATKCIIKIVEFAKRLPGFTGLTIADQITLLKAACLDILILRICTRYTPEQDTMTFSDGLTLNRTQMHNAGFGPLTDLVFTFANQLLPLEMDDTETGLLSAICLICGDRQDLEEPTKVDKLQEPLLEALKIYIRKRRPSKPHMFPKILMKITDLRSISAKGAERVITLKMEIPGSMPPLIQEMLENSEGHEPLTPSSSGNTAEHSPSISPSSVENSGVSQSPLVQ
Sequence (P19793 whole entry, chain 2 of 2): as the sequence (P19793 whole entry, chain 2 of 2) above
How it was run: as §1

Binder	binding signal
B1	-0.39 PBM z-score against 500 random probes
B3	3.04 PBM z-score against 500 random probes
B4	-0.46 PBM z-score against 500 random probes
B9	-0.98 PBM z-score against 500 random probes
B11	-0.87 PBM z-score against 500 random probes
B12	-0.66 PBM z-score against 500 random probes

target: FXR:RXRa (Homo sapiens, UniProt Q96RI1;P19793 full;full); experiment: as above; conditions: tags: His kept;His cleaved; copies: 1;1; label: surface-attached array probe
Sequence (Q96RI1 whole entry, chain 1 of 2): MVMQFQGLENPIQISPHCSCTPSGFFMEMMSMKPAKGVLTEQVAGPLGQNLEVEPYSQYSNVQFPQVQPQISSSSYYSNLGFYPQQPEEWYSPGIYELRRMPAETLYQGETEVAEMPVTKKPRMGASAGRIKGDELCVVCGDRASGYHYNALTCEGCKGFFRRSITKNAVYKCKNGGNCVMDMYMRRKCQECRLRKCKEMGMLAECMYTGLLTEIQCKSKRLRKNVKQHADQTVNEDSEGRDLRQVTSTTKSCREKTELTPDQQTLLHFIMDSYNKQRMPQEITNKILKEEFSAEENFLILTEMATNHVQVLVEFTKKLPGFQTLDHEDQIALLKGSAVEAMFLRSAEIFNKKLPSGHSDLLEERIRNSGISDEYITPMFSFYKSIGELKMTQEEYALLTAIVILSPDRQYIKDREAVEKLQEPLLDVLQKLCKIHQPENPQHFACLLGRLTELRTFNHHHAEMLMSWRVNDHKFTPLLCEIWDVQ
Sequence (P19793 whole entry, chain 2 of 2): as the sequence (P19793 whole entry, chain 2 of 2) above
How it was run: as §1

Binder	binding signal
B2	0.46 PBM z-score against 500 random probes
B4	-0.32 PBM z-score against 500 random probes
B5	-0.37 PBM z-score against 500 random probes
B6	-0.23 PBM z-score against 500 random probes
B9	-2.74 PBM z-score against 500 random probes
B11	-0.07 PBM z-score against 500 random probes
B13	7.94 PBM z-score against 500 random probes

target: LXRb:RXRa (Homo sapiens, UniProt P55055;P19793 full;full); experiment: as above; conditions: tags: His kept;His cleaved; copies: 1;1; label: surface-attached array probe
Sequence (P55055 whole entry, chain 1 of 2): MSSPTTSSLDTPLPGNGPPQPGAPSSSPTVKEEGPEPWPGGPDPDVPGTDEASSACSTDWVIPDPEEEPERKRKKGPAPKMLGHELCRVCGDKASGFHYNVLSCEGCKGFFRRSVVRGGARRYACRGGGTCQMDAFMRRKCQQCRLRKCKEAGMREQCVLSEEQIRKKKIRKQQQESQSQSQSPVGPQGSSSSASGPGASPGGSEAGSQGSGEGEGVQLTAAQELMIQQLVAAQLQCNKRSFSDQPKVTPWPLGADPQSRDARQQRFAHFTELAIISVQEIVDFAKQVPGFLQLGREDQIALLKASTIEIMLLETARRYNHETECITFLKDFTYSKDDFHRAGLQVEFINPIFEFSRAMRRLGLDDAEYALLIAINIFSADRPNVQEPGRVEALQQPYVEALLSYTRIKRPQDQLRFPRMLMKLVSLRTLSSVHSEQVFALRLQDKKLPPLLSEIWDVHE
Sequence (P19793 whole entry, chain 2 of 2): as the sequence (P19793 whole entry, chain 2 of 2) above
How it was run: as §1

Binder	binding signal
B14	6.23 PBM z-score against 500 random probes
B15	5.84 PBM z-score against 500 random probes
B16	6.19 PBM z-score against 500 random probes
B17	6.37 PBM z-score against 500 random probes
B18	6.12 PBM z-score against 500 random probes
B19	6.26 PBM z-score against 500 random probes
B20	6.39 PBM z-score against 500 random probes
B21	6.29 PBM z-score against 500 random probes
B22	7.56 PBM z-score against 500 random probes
B23	7.24 PBM z-score against 500 random probes
B24	6.04 PBM z-score against 500 random probes
B25	7.36 PBM z-score against 500 random probes
B26	6.78 PBM z-score against 500 random probes
B27	6.72 PBM z-score against 500 random probes

target: RXRa (Homo sapiens, UniProt P19793); experiment: no ligand; PBM; 180 nM; PBS pH 7.4, 2% milk, 0.02% Triton X-100, 1 mM DTT, BSA, 0.4 mg/ml salmon testes DNA; conditions: tags: His cleaved; chain copies: 2; label: surface-attached array probe
Sequence (P19793 whole entry): as the sequence (P19793 whole entry, chain 2 of 2) above

Binder	binding signal
B5	-0.14 PBM z-score against 500 random probes
B7	-0.06 PBM z-score against 500 random probes
B8	-0.18 PBM z-score against 500 random probes
B9	-0.92 PBM z-score against 500 random probes
B10	0.4 PBM z-score against 500 random probes
B12	-0.37 PBM z-score against 500 random probes
